# Test results published in the RNAGym collection of RNA variant scans (doi:10.7554/elife.80360).
# B1: CPEB3 Ribozyme (parent)
# chain: GGGGGCCACAGCAGAAGCGUUCACGUCGCGGCCCCUGUCAGAUUCUGGUGAAUCUGCGAAUUCUGCUGU
# Variants of: B1
# Experiment: self-cleavage, relative activity (ratio to wild type); higher = more cleavage; co-transcriptional
row,Variant,self-cleavage
1,C24G C27G,0.192
2,C24G C27A,0.201
3,C24G C27U,0.149
4,C24A U49A,0.815
5,C24G U36G,0.146
6,C24G U36A,0.118
7,C24G U36C,0.171
8,C24A C32A,0.31
9,C24A C32U,0.729
10,A23U C45U,0.975
11,C24G C54A,0.267
12,C24G C54G,0.351
13,C24A U53C,0.603
14,C24A U53G,0.506
15,C24A U53A,0.537
16,A23G U46C,0.906
17,A23G G58C,0.97
18,C24G A51G,0.515
19,C24G A51C,0.323
20,C24A C39G,0.682
21,C24A C39U,0.493
22,C24A C39A,0.349
23,A23U A60C,0.385
24,A23U A60U,0.66

row,Variant,self-cleavage
1,A23U A60G,0.642
2,C24A U55G,0.289
3,A23U C63U,1.01
4,A23U C63G,0.858
5,A23U C63A,0.886
6,C24A C63U,0.699
7,C24A C63A,0.357
8,C24A U67A,0.751
9,C24A U67G,0.693
10,A23G U69G,1.04
11,A23G U69C,1.06
12,A23G U69A,0.974
13,A23G U53C,0.8
14,A23G U53A,0.916
15,A23U C35U,0.974
16,A23U C35G,0.658
17,C24A U64A,0.492
18,C24G C29A,0.184
19,A23G G56U,0.914
20,A23G G56C,0.751
21,C24G C45A,0.485
22,C24G C45G,0.436
23,C24G C45U,0.464
24,A23U G28U,0.148

row,Variant,self-cleavage
1,A23U G28C,0.217
2,C24A G47A,0.771
3,A23G U49A,0.957
4,A23G U49C,0.966
5,A23G U49G,1.03
6,C24A G56C,0.31
7,C24A G56U,0.576
8,C24A G56A,0.52
9,C24G U44A,0.514
10,C24G U44C,0.348
11,A23U G25C,0.185
12,A23U G25A,0.214
13,A23U G25U,0.144
14,C24G G56A,0.22
15,C24G G56U,0.299
16,C24A G31C,0.132
17,C24A G31U,0.257
18,A23U U36C,0.996
19,A23U U36G,0.35
20,A23U U36A,0.222
21,C24A G28C,0.129
22,C24A G28A,0.187
23,C24A G28U,0.127
24,A23G U44A,0.923

row,Variant,self-cleavage
1,A23G U44C,0.904
2,A23G U44G,1.02
3,A23G U55C,0.789
4,A23G U55G,0.752
5,A23G U55A,0.879
6,C24G C63G,0.199
7,C24G C63A,0.237
8,C24G C63U,0.339
9,A23U,1
10,C24A C45U,0.751
11,C24A C45A,0.712
12,C24A C45G,0.677
13,C24A C33A,0.38
14,C24A C33G,0.33
15,C24A C33U,0.761
16,C24A G50A,0.719
17,C24A G50C,0.665
18,A23U A51C,0.995
19,A23U A51U,0.995
20,C24G G65A,0.26
21,C24A C54U,0.854
22,A23G U36A,0.241
23,A23G U36C,0.891
24,A23G U36G,0.227

row,Variant,self-cleavage
1,C24G U46C,0.505
2,C24G U46G,0.471
3,C24G U46A,0.452
4,C24A U69G,0.866
5,C24A U69A,0.825
6,A23U U49C,0.981
7,A23U U49A,1.03
8,A23U U49G,0.936
9,A23G G68U,1
10,A23G G68C,0.971
11,A23G G68A,0.97
12,C24G C57U,0.241
13,C24G C57G,0.13
14,C24G C57A,0.172
15,C24A U43A,0.537
16,C24A U43G,0.427
17,A23U C29G,0.569
18,A23U C29U,0.437
19,A23U C29A,0.8
20,C24A C66G,0.493
21,C24A C66A,0.397
22,C24A C66U,0.651
23,A23U U61G,0.881
24,A23U U61A,0.918

row,Variant,self-cleavage
1,C24A U46G,0.816
2,C24A U46C,0.754
3,C24A U46A,0.793
4,A23U G65C,0.698
5,A23U G65A,0.885
6,A23G U61C,0.614
7,C24A A52G,0.772
8,C24G A42G,0.404
9,C24G A42U,0.418
10,A23U G50A,1.01
11,A23U G50C,0.978
12,A23U G50U,0.958
13,C24G U55G,0.191
14,C24G U55A,0.36
15,C24G C33U,0.38
16,C24A G41U,0.456
17,C24A G41A,0.391
18,C24A G41C,0.299
19,C24G C32U,0.435
20,C24G C32G,0.239
21,A23U U26C,1.04
22,A23U U26G,0.92
23,A23U U26A,0.914
24,C24G C66A,0.24

row,Variant,self-cleavage
1,C24G C66G,0.28
2,A23U G68U,1.03
3,A23U G68C,1.01
4,A23U G68A,0.989
5,C24G G30U,0.173
6,C24G G30A,0.308
7,C24G G30C,0.128
8,C24G A60U,0.226
9,C24G A60C,0.205
10,A23U C34A,0.956
11,A23U C34G,0.819
12,C24A G25U,0.17
13,C24A G25A,0.13
14,C24A G25C,0.122
15,C24A A59G,0.731
16,C24A A59U,0.267
17,C24A C29G,0.166
18,C24A C29U,0.158
19,C24A C29A,0.27
20,A23U U69A,1.03
21,A23U U69C,1.07
22,A23U U62A,0.635
23,A23G U62A,0.948
